{
  "source": "patent US20110123544A1",
  "about": "(published 2011)",
  "data": [
    {"biological_target": "T1, recombinant human IL-12 (rhIL-12) (human, UniProt P29459 23-219; P29460 23-328)", "T1 chain 1": "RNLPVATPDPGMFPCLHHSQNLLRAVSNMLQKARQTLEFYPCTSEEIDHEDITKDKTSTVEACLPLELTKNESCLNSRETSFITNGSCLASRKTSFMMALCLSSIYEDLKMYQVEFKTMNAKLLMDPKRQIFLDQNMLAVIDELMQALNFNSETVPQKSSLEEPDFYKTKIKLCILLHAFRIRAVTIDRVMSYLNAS", "T1 chain 2": "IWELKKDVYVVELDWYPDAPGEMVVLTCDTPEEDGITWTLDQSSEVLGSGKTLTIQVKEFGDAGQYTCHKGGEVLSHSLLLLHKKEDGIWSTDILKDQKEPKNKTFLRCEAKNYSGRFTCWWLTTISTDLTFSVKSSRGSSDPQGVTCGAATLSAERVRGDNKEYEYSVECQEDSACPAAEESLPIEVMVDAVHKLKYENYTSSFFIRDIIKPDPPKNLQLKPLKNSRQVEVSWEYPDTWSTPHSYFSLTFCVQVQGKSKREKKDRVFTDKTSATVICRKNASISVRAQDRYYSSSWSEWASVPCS", "assay": "BIAcore", "units": {"koff": "s⁻¹"}, "values": [
      {"binder": "SGGRSNIGSNHVK", "note": "[Y61 L32 H]", "koff": 0.00026},
      {"binder": "SGGRSNIGSNIVK", "note": "[Y61 L32 I]", "koff": 0.00154},
      {"binder": "SGGRSNIGSTTVK", "note": "[Y61 L31 T]", "koff": 0.000309},
      {"binder": "SGGRSNIGSNDVK", "note": "[Y61 L32 D]", "koff": 0.000252},
      {"binder": "SGGRSNIGSETVK", "note": "[Y61 L31 E]", "koff": 0.000384},
      {"binder": "SGGRSNIGSSTVK", "note": "[Y61 L31 S]", "koff": 0.000392},
      {"binder": "SGGRSNIGSQTVK", "note": "[Y61 L31 Q]", "koff": 0.000292},
      {"binder": "SGGRSNIGSKTVK", "note": "[Y61 L31 K]", "koff": 0.000331}
    ]},
    {"biological_target": "T2, recombinant human interleukin 12 (p40/p35 heterodimer) (human, UniProt P29460 23-328; P29459 23-219)", "T2 chain 1": "T1 chain 2", "T2 chain 2": "T1 chain 1", "assay": "BIAcore", "units": {"koff": "s⁻¹"}, "values": [
      {"binder": "FIRYDGSYKYYADSVKG", "note": "[Y61 H56 Y]", "koff": 0.00039},
      {"binder": "FIRYDGSHKYYADSVKG", "note": "[Y61 H56 H]", "koff": 0.00042},
      {"binder": "FIRYDGSLKYYADSVKG", "note": "[Y61 H56 L]", "koff": 0.000264},
      {"binder": "FIRYDGSNKEYADSVKG", "note": "[Y61 H58 E]", "koff": 0.000415},
      {"binder": "FIRYDGSIKYYADSVKG", "note": "[Y61 H56 I]", "koff": 0.000169},
      {"binder": "FIRYDGSNKVYADSVKG", "note": "[Y61 H58 V]", "koff": 0.000524},
      {"binder": "FIRYDFSNKYYADSVKG", "note": "[Y61 H54 F]", "koff": 0.000663},
      {"binder": "FIRYDGSMKYYADSVKG", "note": "[Y61 H56 M]", "koff": 0.000383},
      {"binder": "FIRYDGSPKYYADSVKG", "note": "[Y61 H56 P]", "koff": 0.000299},
      {"binder": "FIRYDGSTKYYADSVKG", "note": "[Y61 H56 T]", "koff": 0.000235},
      {"binder": "FIRYDGSFKYYADSVKG", "note": "[Y61 H56 F]", "koff": 0.000345},
      {"binder": "FIRYDGSNKFYADSVKG", "note": "[Y61 H58 F]", "koff": 0.000794},
      {"binder": "FIRYDGSNKLYADSVKG", "note": "[Y61 H58 L]", "koff": 0.00073},
      {"binder": "FIRYDGSNKNYADSVKG", "note": "[Y61 H58 N]", "koff": 0.000831},
      {"binder": "FIRYDGSSKYYADSVKG", "note": "[Y61 H56 S]", "koff": 0.000624},
      {"binder": "FIRYDGSNKSYADSVKG", "note": "[Y61 H58 S]", "koff": 0.000941},
      {"binder": "FIRYDGSNKPYADSVKG", "note": "[Y61 H58 P]", "koff": 0.000628},
      {"binder": "FIRYDGSNKIYADSVKG", "note": "[Y61 H58 I]", "koff": 0.000657},
      {"binder": "FIRYDGSGKYYADSVKG", "note": "[Y61 H56 G]", "koff": 0.000272}
    ]},
    {"biological_target": "T1, recombinant human IL-12 (rhIL-12)", "assay": "BIAcore", "remark": "another data set of the same source", "units": {"koff": "s⁻¹"}, "values": [
      {"binder": "HGSHDW", "note": "[Y61 H102 W]", "koff": 0.000235},
      {"binder": "HGSHDK", "note": "[Y61 H102 K]", "koff": 0.000405},
      {"binder": "HGSHDS", "note": "[Y61 H102 S]", "koff": 0.000325},
      {"binder": "HGSHDH", "note": "[Y61 H102 H]", "koff": 0.00018}
    ]},
    {"biological_target": "T1, recombinant human IL-12 (rhIL-12)", "assay": "BIAcore", "remark": "another data set of the same source", "units": {"koff": "s⁻¹"}, "values": [
      {"binder": "MNDQRPS", "note": "[Y61 L50 M]", "koff": 0.000953},
      {"binder": "HNDQRPS", "note": "[Y61 L50 H]", "koff": 0.000761},
      {"binder": "DNDQRPS", "note": "[Y61 L50 D]", "koff": 0.000348},
      {"binder": "ANDQRPS", "note": "[Y61 L50 A]", "koff": 0.000372},
      {"binder": "SNDQRPS", "note": "[Y61 L50 S]", "koff": 0.000286},
      {"binder": "RNDQRPS", "note": "[Y61 L50 R]", "koff": 0.000444},
      {"binder": "WNDQRPS", "note": "[Y61 L50 W]", "koff": 0.000382},
      {"binder": "TNDQRPS", "note": "[Y61 L50 T]", "koff": 0.000272},
      {"binder": "GNDRRPS", "note": "[Y61 L53 R]", "koff": 0.000614},
      {"binder": "KNDQRPS", "note": "[Y61 L50 K]", "koff": 0.00243},
      {"binder": "GNDARPS", "note": "[Y61 L53 A]", "koff": 0.000554},
      {"binder": "INDQRPS", "note": "[Y61 L50 I]", "koff": 0.0012},
      {"binder": "VNDQRPS", "note": "[Y61 L50 V]", "koff": 0.000385},
      {"binder": "GNDPRPS", "note": "[Y61 L53 P]", "koff": 0.000974},
      {"binder": "GNDSRPS", "note": "[Y61 L53 S]", "koff": 0.000866},
      {"binder": "GNDIRPS", "note": "[Y61 L53 I]", "koff": 0.000855},
      {"binder": "NNDQRPS", "note": "[Y61 L50 N]", "koff": 0.000305},
      {"binder": "GNDYRPS", "note": "[Y61 L53 Y]", "koff": 0.000733},
      {"binder": "LNDQRPS", "note": "[Y61 L50 L]", "koff": 0.000616},
      {"binder": "GNDTRPS", "note": "[Y61 L53 T]", "koff": 0.000834},
      {"binder": "ENDQRPS", "note": "[Y61 L50 E]", "koff": 0.000617},
      {"binder": "CNDQRPS", "note": "[Y61 L50 C]", "koff": 0.000467},
      {"binder": "FNDQRPS", "note": "[Y61 L50 F]", "koff": 0.0348},
      {"binder": "QNDQRPS", "note": "[Y61 L50 Q]", "koff": 0.000348},
      {"binder": "PNDQRPS", "note": "[Y61 L50 P]", "koff": 0.00041}
    ]}
  ]
}
